This note sets out measurements from patent publication US20160031986A1.

Substitutions are numbered along the chain they refer to.

To fix the notation:
B1: h1A11.1 (antibody, V domains shown)
VH: EVQLVESGGGLVQPGGSLRLSCAASGFTFSNFPMAWVRQAPGKGLEWVATISSSDGTTYYRDSVKGRFTISRDNAKNSLYLQMNSLRAEDTAVYYCARGYYNSPFAYWGQGTLVTVSS
VL: DIQMTQSPSSLSASVGDRVTITCRASEDIYSNLAWYQQKPGKAPKLLIYDTNNLADGVPSRFSGSGSGTDFTLTISSLQPEDFATYYCQQYNNYPPTFGQGTKLEIKR
B2: h1A11.A8 (antibody, V domains shown)
VH: B1 VH with S30G, A35S, T50S, G56S, T57W, T58A, Y59T, Y60I, R61G, A97S
VL: DIQMTQSPSSLSASVGDRVTITCRASEDIYSNLAWYQQKPGKAPKLLIYDTNNLADGVPSRFSGSGSGTDFTLTISSLQPEDFATYYCQQYNNYPPTFGQGTKLEIK
B3: h1A11.G3 (antibody, V domains shown)
VH: B1 VH with S30R, N31Y, A35S, T50S, S53G, T57W, T58A, Y59S
VL: B2 VL with E27Q, D28E, S31R, A43S, Y49F, N52S, N53V, F71S, N92T, N93Y
B4: h1A11.B4 (antibody, V domains shown)
VH: B1 VH
VL: B2 VL with E27Q, S31Y, Y49F, N53I, Y87F, N92D, N93Y, Y94V
B5: h1A11.A7 (antibody, V domains shown)
VH: B1 VH
VL: B2 VL with E27Q, S31I, Y49F, N52S, N53D, N92D, N93Y
B6: h1A11.E12 (antibody, V domains shown)
VH: B1 VH with S30R, N31Y, S53G, G56E, T57W, T58P, Y59N, Y107F
VL: B2 VL with E27Q, D28E, S31R, A43S, Y49F, N52S, N53V, F71S, N92T, N93Y
B7: h1A11.H2 (antibody, V domains shown)
VH: B1 VH with S30G, A35S, T50S, G56S, T57W, T58A, Y59T, Y60I, R61G, Y107F
VL: B2 VL with E27Q, D28E, S31R, A43S, Y49F, N52S, N53V, F71S, N92T, N93Y
B8: h1A11.A6 (antibody, V domains shown)
VH: B1 VH with S30R, N31H, G56A, T57W, T58P, Y59S, A97S
VL: B2 VL
B9: h1A11.C6 (antibody, V domains shown)
VH: B1 VH with S30R, T57W, T58P, Y59T, N77S, A97S
VL: B2 VL
B10: h1A11.A11 (antibody, V domains shown)
VH: B1 VH with S30R, N31H, G56D, T57W, T58P, Y59N, N77S, A97S
VL: B2 VL
B11: h1A11.A2 (antibody, V domains shown)
VH: B1 VH
VL: B2 VL with E27Q, S31I, A43S, Y49F, N53D, N92D, N93Y, Y94V
B12: h1A11.F5 (antibody, V domains shown)
VH: B1 VH with S30R, N31H, G56A, T57W, T58P, Y59S
VL: B2 VL with E27Q, D28E, S31R, A43S, Y49F, N52S, N53V, F71S, N92T, N93Y
B13: h1A11.B5 (antibody, V domains shown)
VH: B1 VH with S30R, N31Y, A35S, T50S, S53G, T57W, T58A, Y59S, Y107S
VL: B2 VL with E27Q, Y30W, S31N, A43S, Y49F, N52S, N53Y, N92D, N93W
B14: h1A11.A12 (antibody, V domains shown)
VH: B1 VH
VL: B2 VL with E27Q, S31Y, A43S, Y49F, N52S, N53S, Y87F, N92D, N93W
B15: h1A11.15 (antibody, V domains shown)
VH: B1 VH with A75S, N77S, S78T, A97S
VL: B1 VL with Y49F
B16: h1A11.16 (antibody, V domains shown)
VH: B1 VH with A75S, N77S, S78T, A97S
VL: EIVMTQSPATLSVSPGERATLSCRASEDIYSNLAWYQQKPGQSPRLLIFDTNNLADGVPARFSGSGSGTESTLTISSLQSEDFAVYFCQQYNNYPPTFGQGTKLEIKR
B17: 1A11 chimeric antibody (antibody, V domains shown)
VH: EVQLVESGGGLVQPGRSMKLSCAASGFTFRNFPMAWVRQAPTRGLEWVATISSSDGTTYYRDSVKGRFTISRDNAKSTLYLQVNSLRSEDTATYYCSRGYYNSPFAYWGQGTLVTVSS
VL: DIQMTQSPASLSASLGETVTIECRASEDIYSNLAWYQQKPGNSPQLLIFDTNNLADGVPSRFSGSGSGTQSSLKINSLQSEDVASYFCQQYNNYPPTFGGGTKLELKR

One assay deals with cynomolgus monkey DLL4 extracellular domain (cynomolgus monkey). The assay is described as follows: Biacore SPR. (In general: SPR reads the build-up and loss of mass on a sensor chip optically.)
B1 displayed a koff of 0.00255 s⁻¹ and an association rate constant (kon) of 144000 M⁻¹ s⁻¹.
The corresponding values for B2 are 2.4e-05 s⁻¹ and 160000 M⁻¹ s⁻¹.
Molecule B3 registered an off-rate constant (koff) of 1.73e-05 s⁻¹ and an association rate constant (kon) of 99000 M⁻¹ s⁻¹.
The corresponding values for B4 are 0.00099 s⁻¹ and 143000 M⁻¹ s⁻¹.
For the molecule B5, the koff turned out to be 0.00124 s⁻¹ and the kon stood at 158000 M⁻¹ s⁻¹.
B6 gave an off-rate constant (koff) of 3.84e-05 s⁻¹ and an on-rate constant (kon) of 137000 M⁻¹ s⁻¹.
In the case of B7, the off-rate (koff) was determined as 4.6e-05 s⁻¹ and the kon came to 131000 M⁻¹ s⁻¹.
B8: the koff amounted to 2.1e-05 s⁻¹ and the association rate constant (kon) is 171000 M⁻¹ s⁻¹.
B9: the off-rate (koff) was 3.12e-05 s⁻¹ and the kon worked out at 171000 M⁻¹ s⁻¹.
In turn, B10 had a koff of 3.35e-05 s⁻¹ and a kon of 170000 M⁻¹ s⁻¹.
In turn, B11 had an off-rate (koff) of 0.000527 s⁻¹ and a kon of 134000 M⁻¹ s⁻¹.
The corresponding values for B12 are 2e-05 s⁻¹ and 118000 M⁻¹ s⁻¹.
The corresponding values for B13 are 0.000178 s⁻¹ and 117000 M⁻¹ s⁻¹.
B14 had a koff of 0.00162 s⁻¹ and a kon of 158000 M⁻¹ s⁻¹.

Another assay has the same target. Briefly: binding ELISA. Background: In an ELISA, binding on a coated surface is turned into a signal by an enzyme label.
Take B1: the EC50 is 0.13 nM.
The molecule B15 showed a half-maximal effective concentration (EC50) of 0.13 nM.
Same read-out and setting: then B16, with 0.12 nM; and B17, with 0.33 nM.

Another assay has the same target. The assay is described as follows: Biacore SPR; head says nM, kd/ka gives M.
Regarding B1, the Kd was 18 nM.
Turning to B2, the equilibrium dissociation constant (Kd) stood at 0.15 nM.
Still for that read-out and setting: the figure for B3 is 0.17 nM; for B4 it is 6.9 nM.
Still for that read-out and setting: the figure for B5 is 7.8 nM; for B6 it is 0.28 nM.
Still for that read-out and setting: the figure for B7 is 0.35 nM.
For the molecule B8, the Kd was determined as 0.12 nM.
The same measure, in the same setting: the figure for B9 is 0.18 nM.
Same read-out and setting: then B10, with 0.2 nM; and B11, with 3.9 nM; and B12, with 0.17 nM.
On the same count and under the same terms, then B13, with 1.5 nM; and B14, with 10 nM.

Broadly, the koff is a measure of how fast the partners let go of each other. What is called kon is the second-order rate constant of association. A word on the EC50: it is the concentration needed to bring the measured effect to its halfway point. One may read the Kd as a measure of binding affinity in units of concentration.
